# Patent US10900903B2, “Protein structure analysis based on red-edge excitation shift (REES) spectroscopy” (UNIVERSITY OF BATH, priority 2016, dated 2021)
# Experiments:
# [1] = High-pressure REES measurements; type: physicochemical; conditions: buffered solution, any pressure
# Source text: The CSM value is rather larger than reported for the denaturation study above (FIGS. 3A and 3B) and this is due to a different spectral window used to calculate the CSM for the pressure studies. This was necessary due to the optical setup of the pressure cell. […] Fitting the REES data to Eq 4 gives the pressure dependence of A, shown in FIG. 4D as the change in the fraction of A across the pressure range. […] The pressure dependence data can be adequately fit to a simple, phenomenological model that implies a single transition between two states with changing hydrostatic pressure as used previously:
# Where Rp=83.13 cm3 mol^−1 bar K^−1 when the pressure, p, is measured in bar, K0 is the equilibrium constant for the change in the relative population of the ith conformational state represented by the magnitude of A from Eq 4, extrapolated to 0 bar and ΔVA is the apparent difference in the volume associated with this equilibrium transition.
# The difference in sign is simply attributable to relative change in direction of the specific to signal. What is important is that the magnitude of ΔV is much larger for the REES effect compared to W6 emission. Indeed, this magnitude of pressure dependence is more consistent with global metrics of NEMO conformational change previously measured using the pressure dependence of 8-anilino naphthalene sulfonate (ANS) emission. The REES signal may therefore be reflective of the broader equilibrium of NEMO conformational states at sites distal to W6. […] The key finding from the pressure data in the present context is that the REES effect itself is pressure-dependent with the magnitude of A increasing with pressure.
# An ISS high-pressure cell (ISS, Champaign, UL, USA), fitted with a custom fiber optic mounting to the fluorimeter and connected to a circulating water bath for temperature regulation was used to record all high-pressure measurements.
# Where fi is the measured fluorescence intensity and λem is the emission wavelength. The importance of using a consistent wavelength range when reporting CSM data is stressed, as the magnitude will be dependent on the wavelength range chosen.
# [2] = molecular target: T1, NEMO (Homo sapiens, UniProt Q9Y6K9); test: REES of NEMO W6 on ligand binding (peptides, poly-ubiquitin); conditions: for R (fit to Eq 1), relative / A (REES magnitude, fit to Eq 2): relative to NEMO alone, binding partners; for A (REES magnitude, fit to Eq 2): peptides 1 mM, poly-ubiquitin 1 μM
# T1 construct: Full length human NEMO was expressed and purified essentially as described previously [23]; made in house
# Source text: Having established that the REES effect, specifically the use of Eq 2, can be used as a proxy for the protein free energy landscape, how the NEMO REES signal varies upon ligand binding is considered. […] The REES data for NEMO ligand bound states are shown in FIGS. 6A and 6B with the solid lines representing the fit to Eq 2. The resulting extracted values of A from Eq 2 are given in Table 1 and also as an inset bar chart in FIG. 6. For clarity, the relative change in R and A compared to NEMO alone is reported, extracted from Eq 1 and 2, respectively.
# The IKKβ peptide (termed the NEMO binding domain, NBD) contains two Trp residues and so is not suitable for the present study as the signal from the peptide would confound the analysis of the single NEMO Trp. […] From Table 1 and FIG. 5A there is a significant difference in the magnitude of A depending on the ligand bound form of NEMO. […] If the ligand binding data shown in FIG. 5A is fitted to the simple linear function described by Eq 1 a different trend is found. […] Instead the major difference to is in the curvature of the data and this is captured by the use of Eq 2.
# NEMO comprises a specific domain that non-covalently binds poly-ubiquitin. […] Poly-ubiquitin is found as a range of chain-lengths in the cell and evidence has previously been provided from ANS binding studies that NEMO undergoes different conformational change depending on the chain-length of non-covalently bound poly-ubiquitin [23]. The REES effect on NEMO W6 is explored in the presence of both short (4-mer; Ub4) and long (10-mer; Ub10) poly-ubiquitin chains, as shown in FIG. 6B. From the resulting values of A, given in Table 1, Ub4 binding gives a decrease in A (A=0.77±0.05), but Ub10 gives an increase (A=1.23±0.1). […] The absolute magnitude of the REES difference is small.
# Full length human NEMO was expressed and purified essentially as described previously. Purified protein was dialysed extensively into a buffer comprising 50 mM Tris-Cl pH 8.0, 50 mM NaCl and 5 mM DTT. All measurements were made in this buffer unless otherwise stated. IKK-β and IκBα peptides were commercially synthesised by Genscript, having a purity of >98% and are of the sequence […] and […], respectively. The IKK-β peptide was modified such that the two native Trp residues were replaced with Phe residues. M1-linked poly-ubiquitin was purchased from Viva Bioscience. Staphylococcus aureus immune modulator protein fragment Sbi-III-IV K173A was expressed and purified essentially as described previously. Protein concentration used was between 1 and 5 μM. Peptide concentrations were 1 mM and poly-ubiquitin concentrations were 1 μM.
# All fluorescence measurements were performed using a Perkin Elmer LS50B Luminescence Spectrometer (Perkin Elmer, Waltham, Mass., USA) connected to a circulating water bath for temperature regulation (±1° C.). Samples were incubated for 5 minutes at the given conditions prior to recording measurements. Measurements were performed at 10° C., unless otherwise stated. Excitation and emission slit widths were 5 nm except for pressure experiments where they were 10 nm. The larger slit width was required due to the optical setup of the pressure cell to ensure a […] signal-to-noise for the W6 emission signal. For NEMO red edge excitation scans, tryptophan emission was monitored from 315 to 550 nm. […] For red edge excitation scans, tyrosine emission was monitored from 294 to 400 nm, with the excitation wavelength set at 274 nm. […]
# [3] = REES of NEMO W6 Trp emission: native, denatured, crowded; type: physicochemical; conditions: for A (REES magnitude, fit to Eq 2) / R (fit to Eq 1), relative: relative to NEMO alone; for A (REES magnitude, fit to Eq 2) / R (fit to Eq 1), relative / R0: native; for A (REES magnitude, fit to Eq 2): denatured (6M guanidine), crowded (Sbi 20 mg/ml); for R (fit to Eq 1), relative / R0: denatured, crowded; for R0: y-intercept of Eq 2 fit
# Method: Typically the magnitude of the steady-state REES phenomenon is reported as the simple difference in CSM or ΔλEm^max. From FIG. 1, it is observed that a significant red shift in the emission spectra, with an increase in CSM of 17.7 nm and an increase in ΔλEm^max of 15 nm from λex 292-310 nm. Essentially the data are treated by the linear function: CSM=Rλex+CSM0 Eq 1.
# Where R is the REES magnitude expressed as the change in CSM per nm of the excitation wavelength, λex.
# The REES data in FIG. 2 can be best represented by a Gaussian probability distribution of the form:
# Where A is the area, w is the full width at half-maximal (fwhm), m is the mid-point and R0 is the y-intercept and m=λREES^max, where λREES^max is the excitation wavelength that gives the largest change in the emission peak wavelength. The data in FIG. 2 are fit to Eq 2 and illustrate the low energy excitation at the red edge of the protein absorption spectrum. The fit of Eq 2 to the experimental data is excellent and captures the expected relationship described above.
# In this case, the solvent relaxation will be very rapid and no REES effect observed, effectively because there is one discrete solvation state (fully solvated). NEMO is incubated in 6M guanidine to denature the protein and the corresponding change in the center of spectral mass (CSM) versus λex is shown in FIG. 3. The use of CSM is favoured instead of the magnitude of ΔλEm^max as this metric gives a more robust REES signal and the magnitude of may be highly error prone. However the results using ΔλEm^max are essentially the same. A decrease and red-shift in Trp emission is typically grossly correlated with denaturation of proteins. […] Note that this is not the REES effect but reflective of the solvent exposure of NEMO W6 on denaturation. […] Fitting to Eq 2 also gives a large decrease in the REES effect, A=0.37±0.4. The relative change in the REES effect is similar using either approach and this indicates strongly that a fitting approach using Eq 2 is robust.
# Macromolecular crowding is a key feature of the intracellular milieu arising from the very high concentrations of other species in the cytosol. Crowding reduces the available solvent for other molecules in solution through the excluded volume effect, which effectively increase the concentration of, for example, protein and restricts the accessible conformational states through hard-core repulsions between the crowding agent and the protein. Macromolecular crowding can alter protein conformation, typically inducing folding and stabilization. Crowding therefore potentially provides a means to explore the contrasting physical effect of denaturation on the REES effect, where the protein is more folded/stabilized. A protein has been used as the crowding agent, Sbi (reported above), instead of a synthetic crowding agent since protein is much more consistent with the intracellular environment. […] Incubating NEMO with a high concentration of Sbi (20 mg/ml) gives a dramatic change to the both the absolute Trp emission and also the REES effect as shown in FIG. 3. […] Intriguingly, the REES effect is much larger in the crowded environment giving a relative increase in A of 2.24±0.51. […] This is consistent with the putative molecular model of NEMO activity that is based on allosterically regulated NEMO conformational change. Below, the potential mechanistic role of an increased number of available conformational states with respect to ligand interactions is described.
# Full length human NEMO was expressed and purified essentially as described previously. Purified protein was dialysed extensively into a buffer comprising 50 mM Tris-Cl pH 8.0, 50 mM NaCl and 5 mM DTT. All measurements were made in this buffer unless otherwise stated. IKK-β and IκBα peptides were commercially synthesised by Genscript, having a purity of >98% and are of the sequence […] and […], respectively. […]
# [4] = QUBES of mAb unfolding in urea; type: physicochemical
# Method: Changes in protein structure are accompanied by a change in the equilibrium of conformational states. It has been previously found with a model system, a ‘hub’ protein (described above), that by quantitating the curvature in REES data it is possible to capture information on unfolded states and ligand induced conformational change. It was explored whether the sensitive detection of differences in REES data could be useful for detecting subtle changes in protein structure in mAbs. It is tested whether the QUBES data can be used to identify unfolding and aggregation of the mAbs since these are key issues facing the development of biopharmaceuticals. […] The formation of soluble aggregates is monitored in the thermally denatured mAbs by dynamic light scattering (DLS), shown in FIG. 19.
# The observed variance in the QUBES values for the denatured mAbs (FIG. 14A) may reflect the differing extent of unfolding or aggregation for each of the samples and the specific nature of the unfolded or aggregated states. […] The data therefore illustrate that these metrics ignore early stage changes to protein structure that are not captured by simple steady-state fluorescence emission measurements.
# All fluorescence measurements were performed using a Perkin Elmer LS50B Luminescence Spectrometer (Perkin Elmer, Waltham, Mass., USA) connected to a circulating water bath for temperature regulation (±1° C.). […]
# T1 sequence (Q9Y6K9 whole entry): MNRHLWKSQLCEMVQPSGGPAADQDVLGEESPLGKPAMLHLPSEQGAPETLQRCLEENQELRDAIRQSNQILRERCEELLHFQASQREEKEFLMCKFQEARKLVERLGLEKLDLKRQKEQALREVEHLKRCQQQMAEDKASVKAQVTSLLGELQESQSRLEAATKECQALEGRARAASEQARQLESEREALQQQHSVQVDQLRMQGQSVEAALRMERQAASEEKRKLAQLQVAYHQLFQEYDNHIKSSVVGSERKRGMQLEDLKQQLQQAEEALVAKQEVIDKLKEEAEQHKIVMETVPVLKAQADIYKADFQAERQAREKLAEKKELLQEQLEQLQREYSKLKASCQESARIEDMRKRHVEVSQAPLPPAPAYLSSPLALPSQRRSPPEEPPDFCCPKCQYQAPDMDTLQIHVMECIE
compound,measurement,setting,value
"N[C@@H](Cc1c[nH]c2ccccc12)C(=O)O [free Trp, tryptophan, reference compound]",REES effect under pressure (in words),[1],No REES effect is observed
"IκBα peptide: peptide mimic of IκBα, sequence DDRHDSGLDSMKD","R (fit to Eq 1), relative",[2],1.35±0.1
same,"A (REES magnitude, fit to Eq 2)",[2],0.85±0.04
"NBD-Phe: IKK-β peptide (NEMO binding domain), two Trp replaced with Phe, sequence TALDFSFLQTE",decrease in W6 emission on binding,[2],~50%
same,"R (fit to Eq 1), relative",[2],0.98±0.1
same,"A (REES magnitude, fit to Eq 2)",[2],1.33±0.3
NEMO + Sbi: NEMO incubated with a high concentration of Sbi (20 mg/ml) as crowding agent,Trp emission intensity compared to NEMO in the absence of Sbi,[3]; Sbi 20 mg/ml,~1.4 times
same,"A (REES magnitude, fit to Eq 2)",[3],2.24±0.51
same,"R (fit to Eq 1), relative",[3],1.07 ± 0.12
same,R0,[3],360.5±0.45 nm
NEMOdenat: NEMO incubated in 6M guanidine to denature the protein,REES effect (in words),[3],dramatically reduced REES effect
same,"R (fit to Eq 1), change in CSM per nm of λex",[3]; absolute value,0.22±0.02
same,"A (REES magnitude, fit to Eq 2)",[3],0.37 ± 0.4
same,"A (REES magnitude, fit to Eq 2)",[3]; listed as Denatured NEMO,0.37±0.4
same,"R (fit to Eq 1), relative",[3],0.21 ± 0.01
same,"R (fit to Eq 1), relative",[3]; listed as Denatured NEMO,0.23±0.1
same,R0,[3],375.0 ± 0.5 nm
same,R0,[3]; listed as Denatured NEMO,375±0.5 nm
same,increase in CSM (red shift),[3]; λex 292-310 nm,4 nm
Tocilizumab: humanised therapeutic mAb,urea concentration at which a significant increase in CSM0 is observed,[4],7 M
same,QUBES value shift on unfolding,[4]; urea,larger R and smaller A value
